One assay has as its target T1, TagRFP-XWnt8 (Xenopus laevis, UniProt P28026 23-358).
T1 construct: Wnt8 (XWnt8), Xenopus laevis, secreted fusion with TagRFP; also called TagRFP-Wnt8
T1 sequence (looked up): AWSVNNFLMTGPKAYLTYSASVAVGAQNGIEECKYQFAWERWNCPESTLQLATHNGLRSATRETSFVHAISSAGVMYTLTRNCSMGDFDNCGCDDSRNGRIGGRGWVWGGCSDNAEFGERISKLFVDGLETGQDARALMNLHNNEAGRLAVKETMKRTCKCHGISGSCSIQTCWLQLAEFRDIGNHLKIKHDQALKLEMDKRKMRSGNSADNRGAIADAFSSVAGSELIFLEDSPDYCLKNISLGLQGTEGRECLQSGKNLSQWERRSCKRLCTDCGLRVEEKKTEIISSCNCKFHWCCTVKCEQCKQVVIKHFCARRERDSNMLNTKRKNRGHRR
Description: FRAP in living embryos; EGFP-Noggin4 bleached in a single intercellular space of the animal ectoderm that also holds TagRFP-Wnt8 (quasi-immobile); about 1 μM of each; Kd selected to fit the FRAP kinetics by a diffusion-adsorption model. As to conditions: partners not purified.

Assay [1] has as its target Myc-Noggin4 (Xenopus laevis). Description: co-IP; quantitative co-immunoprecipitation (qCoIP): gradually decreasing concentrations of Flag-Wnt8 added to a standard amount of Myc-Noggin4 pre-mixed with anti-Myc resin; bound and unbound Flag-Wnt8 by quantitative Western blot against Flag-BAP standard. (In general: In western blotting, separated proteins are transferred to a membrane and probed.)

In assay [2] the target is 3Myc-His6-Noggin4 (Xenopus laevis). Description: SPR; Biacore T200; 3Myc-6His-Noggin4 immobilised on CM5 chip (1,500 RU) by amine coupling; 6His-Wnt8 injected; HBS-EP, 25 °C; equilibrium responses fitted to a 1:1 Langmuir model. A general note: In SPR one partner is held on a chip, and binding of the other changes the refractive index at the surface.

B1: EGFP-Noggin4 (natural protein)
chain: MVHILVISWLMTLGTWGPTAICAPTNDLEPHNRTQKDMDIGSLRRQLSSGTRPYSLSLSPQDYHYSPKPKHLRVSRLLRLLGSSFDPFWMSVEQPADYSTSLLSTLSQDLYDGASRYRKKLAQEVQGLNFDSLQLPTELSANASQNIQNEIRQWLVQRASCQLTSTWVDLGTVFWPRWVRHTDCDGTNTACSWPPGMACRQAQFTQIKLLAWHCWMKDTGLGWATQQCTWRQVPYPVVAACKCTCR
modifications: No candidate is Noggin4 (P49011 is Noggin1). The paper reports two pseudoalleles and does not say which was used, so nog4.L is assumed. The Table S1 primers show the mature part starting at GQTNDL …
Regarding B1, the Kd with TagRFP-XWnt8 is at most 100 nM.

B2: Flag-Wnt8 (ligand)
chain: T1 sequence (looked up)
For B2, the Kd in assay [1] came to 10 nM.

B3: Xenopus laevis recombinant Wnt8 labeled by 6-Hys-tag at the N-terminus (ligand)
chain: T1 sequence (looked up)
On to B3, for which, in assay [2], the Kd came to 90 nM.

One may read the Kd as the equilibrium constant for the complex coming apart. The low end stands for tighter binding, the high end for weaker binding.

These data come from article PMC4789793, “Noggin4 is a long-range inhibitor of Wnt8 signalling that regulates head development in Xenopus laevis” (Scientific Reports, 2016).
